Molecular target: T1, GST-CBP60g (Arabidopsis thaliana, UniProt F4K2R6 1-563)
T1 sequence: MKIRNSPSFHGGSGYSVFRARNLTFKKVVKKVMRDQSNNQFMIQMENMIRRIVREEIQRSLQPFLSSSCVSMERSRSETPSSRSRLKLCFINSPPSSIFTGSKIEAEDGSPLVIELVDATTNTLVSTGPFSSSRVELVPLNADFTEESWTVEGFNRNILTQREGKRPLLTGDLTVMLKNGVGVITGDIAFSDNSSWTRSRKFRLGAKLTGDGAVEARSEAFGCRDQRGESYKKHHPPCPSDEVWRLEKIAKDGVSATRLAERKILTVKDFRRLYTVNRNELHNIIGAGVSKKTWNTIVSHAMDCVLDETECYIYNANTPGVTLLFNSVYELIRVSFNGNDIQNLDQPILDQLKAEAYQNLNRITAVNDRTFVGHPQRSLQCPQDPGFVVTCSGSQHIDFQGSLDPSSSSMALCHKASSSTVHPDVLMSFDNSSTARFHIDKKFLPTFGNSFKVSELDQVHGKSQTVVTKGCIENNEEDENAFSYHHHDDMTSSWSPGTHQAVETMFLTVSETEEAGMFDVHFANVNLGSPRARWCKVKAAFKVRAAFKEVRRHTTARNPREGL
Assay: EMSA; no effector; signal reduced by 150x unlabeled probe; 10 mM Tris-HCl pH 7.5, 50 mM KCl, 1 mM DTT, 50 ng poly[dI-dC], 20 ul, room temperature 30 min; 2 fmol probe, 4 ug GST-CBP60g; 5% native PAGE
Details: protein: recombinant; tags: N-terminal GST (pGEX-6p-1); label: 32P (5' end, T4 PNK); blunt

B1: ICS1 promoter 60-bp probe (dsDNA)
DNA 1: TGTGTAATTTGGTGGTTATTTCATAGAAATTTTGGGGAAATTGTTGCACCTCTCCACTCT
DNA 2: AGAGTGGAGAGGTGCAACAATTTCCCCAAAATTTCTATGAAATAACCACCAAATTACACA
Question: Does B1 bind?
Answer: binds

Source: publication PMC5993538, “The plant-specific transcription factors CBP60g and SARD1 are targeted by a Verticillium secretory protein VdSCP41 to modulate immunity”
